This is an account of results in patent publication US20230279059A1 (VIB VZW, published 2023).

The chains are these.
T1: split-BC Ena1B, C-terminal part (strands CDEFGHI) (Bacillus cereus NVH 0075-95)
T1 construct: also called split BC construct, C-terminal half
T1 chain: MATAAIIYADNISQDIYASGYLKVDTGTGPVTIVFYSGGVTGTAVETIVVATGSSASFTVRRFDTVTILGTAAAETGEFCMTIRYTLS

B1: Ena2C after removal of the 6×His-TEV blocker by TEV protease (other)
chain: MKNKKNIGCFAPLSIICPDPCPPPPPPNPNCERVTNEFAGNFLITNNTIPSAKDASQSMILWQSDGILLISGTVSVYNSTSSTETITIQIVGTVTNIFTVFPGNTISYTGKDLHSVSIINITSNPSLYLEGKYCCEFTCCL
notes: also called short L-like Ena2C filaments
B2: M-TEV-Ena1B (M-[…]-Ena1B), steric block of 6 amino acids (other)
chain: MENLYFQGNCSTNLSCCANGQKTIVQDKVCIDWTAAATAAIIYADNISQDIYASGYLKVDTGTGPVTIVFYSGGVTGTAVETIVVATGSSASFTVRRFDTVTILGTAAAETGEFCMTIRYTLS
notes: also called M-TEV-Ena1B (N=6)
B3: recEna1BΔNtc (deletion of residues 2-15 of WT Ena1B) (other)
chain: MKTIVQDKVCIDWTAAATAAIIYADNISQDIYASGYLKVDTGTGPVTIVFYSGGVTGTAVETIVVATGSSASFTVRRFDTVTILGTAAAETGEFCMTIRYTLS
B4: M-His6-SSG-Ena1B, steric block of 9 amino acids (other)
chain: MHHHHHHSSGGNCSTNLSCCANGQKTIVQDKVCIDWTAAATAAIIYADNISQDIYASGYLKVDTGTGPVTIVFYSGGVTGTAVETIVVATGSSASFTVRRFDTVTILGTAAAETGEFCMTIRYTLS
B5: Ena2A after removal of the 6×His-TEV blocker by TEV protease (other)
chain: MSCECSGSALTCCPDKNYVQDKVCSPWSATVVATAIDNVLYTNNINQNVVGTGFVKYDVGPGPITVEALDSAGGTIDTQTLNPGTSIAFTYRRFDSIQVVLPATPAGTYQGEFCITTRYPLS
notes: also called in vitro assembled Ena2A filament
B6: Ena2A without steric block (other)
chain: B5 chain
notes: also called WP_001277540.1
B7: Bacillus cereus NVH 0075-95 Endospore appendage (Ena) 1A, wild type (other)
chain: MACECSSTVLTCCSDNSSNFVQDKVCNPWSSAEASTFTVYANNVNQNIVGTGYLTYDVGPGVSPANQITVTVLDSGGGTIQTFLVNEGTSISFTFRRFNIIQITTPATPIGTYQGEFCITTRYLMA
notes: also called KMP91697.1; WP_000742049.1
B8: recombinant Ena1B with N-terminal 6xHis tag and TEV cleavage site (other)
chain: MHHHHHHSSGENLYFQGNCSTNLSCCANGQKTIVQDKVCIDWTAAATAAIIYADNISQDIYASGYLKVDTGTGPVTIVFYSGGVTGTAVETIVVATGSSASFTVRRFDTVTILGTAAAETGEFCMTIRYTLS
B9: Ena1B-HI-HA insertion variant (other)
chain: MGNCSTNLSCCANGQKTIVQDKVCIDWTAAATAAIIYADNISQDIYASGYLKVDTGTGPVTIVFYSGGVTGTAVETIVVATGSSASFTVRRFDTVTILGGSYPYDVPDYAGSAAETGEFCMTIRYTLS
B10: split-BC Ena1B, N-terminal part (strands AB) (other)
chain: MGNCSTNLSCCANGQKTIVQDKVCIDWTAA
notes: also called split BC construct, N-terminal half
B11: recombinant Ena1C with N-terminal 6xHis tag and TEV cleavage site (other)
chain: MHHHHHHSSGENLYFQGKPHKNIGCFAPLSIICQPTCPCPPPILPPERGDAELVTNEFAGDILISNDFIPISQKQLKQTNTTVNIWKNDGIVSLSGTISIYNNRNSTNALSIQIISSTTNTFTALPGNTISYTGFDLQSVSVIDIPSDPSIYIEGRYCFQLTYCKSKRDCL
notes: also called recEna1C; WP_000802321
B12: recEna1B after removal of the N-terminal 6xHis tag by TEV protease (other)
chain: GNCSTNLSCCANGQKTIVQDKVCIDWTAAATAAIIYADNISQDIYASGYLKVDTGTGPVTIVFYSGGVTGTAVETIVVATGSSASFTVRRFDTVTILGTAAAETGEFCMTIRYTLS
notes: also called in vitro Ena1B fibers; recENA1B (PDB7A02)
B13: Ena1B-DE-Flag insertion variant (other)
chain: MGNCSTNLSCCANGQKTIVQDKVCIDWTAAATAAIIYADNISQDIYASGYLKVDTGSDYKDDDDKGSGPVTIVFYSGGVTGTAVETIVVATGSSASFTVRRFDTVTILGTAAAETGEFCMTIRYTLS
B14: Bacillus cereus NVH 0075-95 Endospore appendage (Ena) 1B, wild type (other)
chain: MGNCSTNLSCCANGQKTIVQDKVCIDWTAAATAAIIYADNISQDIYASGYLKVDTGTGPVTIVFYSGGVTGTAVETIVVATGSSASFTVRRFDTVTILGTAAAETGEFCMTIRYTLS
notes: also called WT Ena1B; WT recEna1B

Series [1] concerns the molecule itself. Nature of the series: in vitro self-assembly after TEV cleavage, cryo-EM.
Series [2] deals with the molecule itself. Description: expression in E. coli, ns-TEM.
Series [3] deals with the molecule itself. Nature of the series: in vitro self-assembly after TEV cleavage, NS-TEM and cryo-EM.
Series [4] concerns the molecule itself. Description: self-assembly in the E. coli cytoplasm, NS-TEM.
Series [5] concerns the molecule itself. Nature of the series: self-assembly of tag-free protein in the E. coli cytoplasm, negative stain TEM.
Series [6] addresses B14. Nature of the series: immunogold TEM and cryoEM of ex vivo S-type Enas; both subunits within single fibers.
Series [7] deals with the molecule itself. Nature of the series: self-assembly after refolding from 8M urea, negative stain TEM.
Series [8] deals with the molecule itself. Nature of the series: expression in E. coli, nsTEM.
The target in series [9] is T1, split-BC Ena1B, C-terminal part …. Nature of the series: co-expression of the two halves in E. coli, NS-TEM.
Series [10] concerns the molecule itself. Nature of the series: self-assembly after refolding by dialysis, EM.
Series [11] has as its target B8. Nature of the series: epitaxial growth on maleimide magnetic beads carrying 6×His_TEV_Ena1B multimers, nsTEM.
Series [12] deals with the molecule itself. Nature of the series: self-assembly after TEV cleavage of the His-tag, TEM.

Turning to B1, the binding result in [1] was “binds”. For B2, in series [2], the binding result was “binds”.

As for B3, the binding result in series [2] is given as “binds”. For B4, the binding result in series [2] is listed as “binds”. With B5, in series [3], the binding result is reported as “binds”. Regarding B6, the binding result in series [4] is given as “binds”. B7: the binding result in series [5] and in series [6] was “binds” in each case. For the molecule B8, the binding result in [7] is given as “binds”.

As to B9, in [8], the binding result is “binds”. As to B10, in series [9], the binding result is recorded as “binds”. Take B11: in series [10], the binding result is given as “binds”. On to B12, for which the binding result in series [11] and in [12] was “binds” each time. In the case of B13, in [8], the binding result is listed as “binds”. For B14, in series [5], the binding result is “binds”.
